The experiment addresses wild-type human PD-1, expressed on cells (PD1-CD28) (human) (UniProt P10747). In words: cell-based or functional assay.

wild-type human PD-1, expressed on cells (PD1-CD28) (human), sequence (P10747 other isoform, or with tags, fused parts or gaps limits assumed): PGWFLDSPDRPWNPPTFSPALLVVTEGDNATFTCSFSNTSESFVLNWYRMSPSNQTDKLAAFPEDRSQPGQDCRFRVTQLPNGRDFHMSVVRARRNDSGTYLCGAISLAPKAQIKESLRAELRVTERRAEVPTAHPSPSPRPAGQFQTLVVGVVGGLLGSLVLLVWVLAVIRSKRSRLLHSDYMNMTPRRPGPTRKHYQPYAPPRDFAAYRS

Turning to Tilelizumab (antibody), the IL-2 concentration (pg/ml) at 0.8 nM worked out at 432 pg/mL, the IL-2 concentration (pg/ml) at 1.6 nM came to 440 pg/mL, the IL-2 concentration (pg/ml) at 3.2 nM was 440 pg/mL and the IL-2 concentration (pg/ml) at 6.4 nM is 56.1 pg/mL. The substance further returned an IL-2 concentration (pg/ml) at 12.8 nM of 36.9 pg/mL, an IL-2 concentration (pg/ml) at 25.6 nM of 47.7 pg/mL, an IL-2 concentration (pg/ml) at 51.2 nM of 80.5 pg/mL and an IL-2 concentration (pg/ml) at 102.4 nM of 126 pg/mL.

The values are drawn from patent EP4538285A1.
